Laboratory results from patent publication US20160237162A1 (AstraZeneca / MedImmune, published 2016).

Experiments:
[1] = target: T1, Recombinant mouse HER3(ECD)/Fc chimera (mouse, UniProt Q61526 20-641); test: ELISA with purified IgG on murine HER3
T1 construct: Generated in house; also called murine HER3 (as a HER3-Fc fusion); murine HER3; not shown: Fc part and any linker or tag of the in-house chimera

[2] = target: T2, human HER3 on human cancer cells (human, UniProt P21860 20-1342); test: cell-based or functional assay
[3] = target: T2, human HER3 on human cancer cells; test: cell-based or functional assay; remark: listed apart in the source
[4] = target: T2, human HER3 on human cancer cells; test: cell-based or functional assay; remark: listed apart in the source
[5] = target: T3, Recombinant human HER3(ECD)/Fc chimera (human, UniProt P21860 20-643, biotinylated in the capture ELISA of section 1.9); test: HRG-HER3 ELISA: plate coated with HRG, antibody dilutions premixed with 5 ug/ml recombinant HER3, bound HER3 detected by anti-His HRP; blocked ligand HRG
T3 construct: extracellular domain; Bought (R&D Systems); The ELISA sections say only 'recombinant HER3 protein' / 'biotinylated HER3 protein' / 'recombinant HER3'; also called recombinant HER3 protein; biotinylated HER3 protein; not shown: Fc, linker peptide and C-terminal 6x Histidine-tag

[6] = target: T3, Recombinant human HER3(ECD)/Fc chimera; test: Fab capture ELISA with biotinylated HER3, against GL-P6
Description: (§1) Briefly, this capture ELISA involved coating individual wells of a 96-well Maxisorp Immunoplate with approximately 50 ng of a sheep anti-human Fd antibody (Biodesign International, ME) in a carbonate buffer at pH 8.5 overnight at 4° C. The next day, the plate was blocked with 3% BSA in PBS buffer for 1 h at room temperature. Fab supernatant was then added to the plate and incubated at room temperature for 1 hr. After washing, 0.1 μg of biotinylated HER3 protein was added to the well and the mixture was incubated for 1.5 h at room temperature. This was followed by incubation with neutravidin-horseradish peroxydase (HRP) conjugate (Pierce, Ill.) for approximately 40 min at room temperature. HRP activity was detected with tetra-methyl-benzidine (TMB) substrate and the reaction quenched with 0.2 M H₂SO₄. Plates were read at 450 nm.
(§2) The Fab concentration was determined by comparing the ELISA signals with the signals generated by the reference Fab.

[7] = target: T3, Recombinant human HER3(ECD)/Fc chimera; test: Fab capture ELISA with biotinylated HER3
Description: as §1, §2

[8] = target: T2, human HER3 on human cancer cells; test: cell-based or functional assay; remark: listed apart in the source
[9] = target: T2, human HER3 on human cancer cells; test: cell-based or functional assay; remark: listed apart in the source
[10] = target: T2, human HER3 on human cancer cells; test: cell-based or functional assay; remark: listed apart in the source
[11] = target: T2, human HER3 on human cancer cells; test: cell-based or functional assay; remark: listed apart in the source
[12] = target: T2, human HER3 on human cancer cells; test: cell-based or functional assay; remark: listed apart in the source
[13] = target: T2, human HER3 on human cancer cells; test: cell-based or functional assay; remark: listed apart in the source
[14] = target: T2, human HER3 on human cancer cells; test: cell-based or functional assay; remark: listed apart in the source
[15] = target: T2, human HER3 on human cancer cells; test: cell-based or functional assay; remark: listed apart in the source

Row | Binder | BT474 6-day growth % Max inhibition [2] [%] | BT474 clonogenic assay % Max inhibition [2] [%] | BT474 pAKT assay % Max inhibition [2] [%] | T47D HRG inducible pHer3 % Max inhibition [2] [%] | also measured
1 | 2C2-YTE monoclonal antibody (antibody, human IgG1, V domains shown) VH: EVQLLESGGGLVQPGGSLRLSCAASGFTFSYYYMQWVRQAPGKGLEWVSYIGSSGGVTNYADSVKGRFTISRDNSKNTLYLQMNSLRAEDTAVYYCARVGLGDAFDIWGQGTMVTVSS VL: QSVLTQPPSASGTPGQRVTISCSGSLSNIGLNYVSWYQQLPGTAPKLLISRNNQRPSGVPDRFSGSKSGTSASLAISGLRSEDEADYYCAAWDDSPPGEAFGGGTKLTVL | – | – | – | – | IC50 (read off the curve); suppression of pAKT (Meso-Scale Discovery assay), BT-474 cells [3]: ~0.003 ug/ml; IC50 (read off the curve); suppression of pHER3 (pHER3 ELISA), BT-474 cells [4]: ~0.003 ug/ml
2 | Clone 16 antibody (CL16), human IgG1 (antibody, V domains shown, also called parental IgG; Clone 16-PA) VH: EVQLLESGGGLVQPGGSLRLSCAASGFTFSYYYMQWVRQAPGKGLEWVSYIGSSGGVTNYADSVKGRFTISRDNSKNTLYLQMNSLRAEDTAVYYCARVGLGDAFDIWGQGTMVTVSS VL: QYELTQPPSASGTPGQRVTMSCSGSSSNIGLNYVSWYQQLPGTAPKLLISRNNQRPSGVPDRFSGSKSGTSASLAISGLRSEDEADYYCAAWDDSLSGEVFGGGTKLTVL | 46 | 79.8 | 64 | 75 | IC50 (read off the curve) [5]: ~0.6 µg/mL
3 | 2F10 antibody, human IgG1 (antibody, V domains shown) VH: EVQLLESGGGLVQPGGSLRLSCAASGFTFSYYYMQWVRQAPGKGLEWVSYIGSSGGVTNYADSVKGRFTISRDNSKNTLYLQMNSLRAEDTAVYYCARVGLGDAFDIWGQGTMVTVSS VL: QSVLTQPPSASGTPGQRVTISCSGSSSNIGLNYVSWYQQLPGTAPKLLISRNNQRPSGVPDRFSGSKSGTSASLAISGLRSEDEADYYCAAWDDSPSGEAFGGGTKLTVL | 49 | 80.4 | 62 | 86 | –
4 | clone 4C4 Fab (Fab, V domains shown, Fab, single VL mutant (S96aR) of GL-P6) VH: EVQLLESGGGLVQPGGSLRLSCAASGFTFSYYYMQWVRQAPGKGLEWVSYIGSSGGVTNYADSVKGRFTISRDNSKNTLYLQMNSLRAEDTAVYYCARVGLGDAFDIWGQGTMVTVSS VL: not shown | – | – | – | – | fold binding improvement [6]: 8.6 fold
5 | clone 4H6 Fab (Fab, V domains shown, Fab, single VL mutant (S24R) of GL-P6) VH: EVQLLESGGGLVQPGGSLRLSCAASGFTFSYYYMQWVRQAPGKGLEWVSYIGSSGGVTNYADSVKGRFTISRDNSKNTLYLQMNSLRAEDTAVYYCARVGLGDAFDIWGQGTMVTVSS VL: not shown | – | – | – | – | binding result [7]: binds
6 | clone 8A3 Fab (Fab, V domains shown, Fab, single VL mutant (S96aI) of GL-P6) VH: EVQLLESGGGLVQPGGSLRLSCAASGFTFSYYYMQWVRQAPGKGLEWVSYIGSSGGVTNYADSVKGRFTISRDNSKNTLYLQMNSLRAEDTAVYYCARVGLGDAFDIWGQGTMVTVSS VL: not shown | – | – | – | – | fold binding improvement [6]: 3.5 fold
7 | clone 6E3 Fab (Fab, V domains shown, Fab, single VL mutant (S27L) of GL-P6) VH: EVQLLESGGGLVQPGGSLRLSCAASGFTFSYYYMQWVRQAPGKGLEWVSYIGSSGGVTNYADSVKGRFTISRDNSKNTLYLQMNSLRAEDTAVYYCARVGLGDAFDIWGQGTMVTVSS VL: not shown | – | – | – | – | binding result [7]: binds
8 | clone 2D1 Fab (Fab, V domains shown, Fab, single VL mutant (V97A) of GL-P6) VH: EVQLLESGGGLVQPGGSLRLSCAASGFTFSYYYMQWVRQAPGKGLEWVSYIGSSGGVTNYADSVKGRFTISRDNSKNTLYLQMNSLRAEDTAVYYCARVGLGDAFDIWGQGTMVTVSS VL: not shown | – | – | – | – | binding result [7]: binds

Now from value to binder, other results behind:

Row | BT474 6-day growth % Max inhibition [2] [%] | BT474 clonogenic assay % Max inhibition [2] [%] | BT474 pAKT assay % Max inhibition [2] [%] | T47D HRG inducible pHer3 % Max inhibition [2] [%] | Binder | also measured
9 | 54.5 | 81.3 | 62 | 84 | 1A4 antibody, human IgG1 (antibody, V domains shown, IgG1, lambda) VH: EVQLLESGGGLVQPGGSLRLSCAASGFTFSYYYMQWVRQAPGKGLEWVSYIGSSGGVTNYADSVKGRFTISRDNSKNTLYLQMNSLRAEDTAVYYCARVGLGDAFDIWGQGTMVTVSS VL: QSVLTQPPSASGTPGQRVTISCSGSSSNIGLNYVSWYQQLPGTAPKLLISRNNQRPSGVPDRFSGSKSGTSASLAISGLRSEDEADYYCAAWDDSPPGEAFGGGTKLTVL | binding result [1]: binds
10 | – | 87.2 | 61 | 85 | 2C2 monoclonal antibody, human IgG1 (antibody, V domains shown) VH: EVQLLESGGGLVQPGGSLRLSCAASGFTFSYYYMQWVRQAPGKGLEWVSYIGSSGGVTNYADSVKGRFTISRDNSKNTLYLQMNSLRAEDTAVYYCARVGLGDAFDIWGQGTMVTVSS VL: QSVLTQPPSASGTPGQRVTISCSGSLSNIGLNYVSWYQQLPGTAPKLLISRNNQRPSGVPDRFSGSKSGTSASLAISGLRSEDEADYYCAAWDDSPPGEAFGGGTKLTVL | IC50; suppression of pHER3 (pHER3 ELISA), EGFR-TKI (gefitinib)-resistant HCC827 cells [8]: 3.5 ng/ml; IC50; suppression of HRG-induced pHER3 (pHER3 ELISA), MCF-7 cells [9]: 8.4 ng/ml; IC50; growth suppression (CellTiter-Glo, 6 days), HMCB melanoma cells [10]: 0.027 µg/mL; IC50; suppression of pAKT (Meso-Scale Discovery assay), BT-474 cells [3]: 0.003 ug/ml; IC50; suppression of pHER3 (pHER3 ELISA), BT-474 cells [4]: 0.004 ug/ml; HRG-induced pHER3 ELISA in MCF-7 cells; potency by IC50 against MM and AMG [11]: ~5 fold; IC50; suppression of pAKT (Meso-Scale Discovery assay), Kato III cells [12]: 0.9 ng/ml; IC50; suppression of pHER3 (pHER3 ELISA), HCC827 cells [13]: 2 ng/ml; IC50; suppression of pHER3 (pHER3 ELISA), Kato III cells [14]: 0.8 ng/ml; IC50; suppression of pAKT (Meso-Scale Discovery assay), MKN45 cells [15]: 2.9 ng/ml
11 | 47.5 | 87.1 | 62 | 85 | P2B11 antibody, human IgG1 (antibody, V domains shown) VH: EVQLLESGGGLVQPGGSLRLSCAASGFTFSYYYMQWVRQAPGKGLEWVSYIGSSGGVTNYADSVKGRFTISRDNSKNTLYLQMNSLRAEDTAVYYCARVGLGDAFDIWGQGTMVTVSS VL: not shown | –
12 | 48.1 | 79.2 | 66 | 86 | 3E1 antibody, human IgG1 (antibody, V domains shown, IgG1, lambda) VH: EVQLLESGGGLVQPGGSLRLSCAASGFTFSYYYMQWVRQAPGKGLEWVSYIGSSGGVTNYADSVKGRFTISRDNSKNTLYLQMNSLRAEDTAVYYCARVGLGDAFDIWGQGTMVTVSS VL: QSVLTQPPSASGTPGQRVTISCRGSSSNIGLNYVSWYQQLPGTAPKLLISRNNQRPSGVPDRFSGSKSGTSASLAISGLRSEDEADYYCAAWDDSPPGEAFGGGTKLTVL | binding result [1]: binds
